Reference: publication PMC6754870 (2019)

Experiments:
VEGFR1 = target: T1, VEGFR1 (Rattus norvegicus, UniProt P53767); experiment: [125I]-VEGF-A saturation binding to isolated LSECs at 4°C, Scatchard
T1 chain: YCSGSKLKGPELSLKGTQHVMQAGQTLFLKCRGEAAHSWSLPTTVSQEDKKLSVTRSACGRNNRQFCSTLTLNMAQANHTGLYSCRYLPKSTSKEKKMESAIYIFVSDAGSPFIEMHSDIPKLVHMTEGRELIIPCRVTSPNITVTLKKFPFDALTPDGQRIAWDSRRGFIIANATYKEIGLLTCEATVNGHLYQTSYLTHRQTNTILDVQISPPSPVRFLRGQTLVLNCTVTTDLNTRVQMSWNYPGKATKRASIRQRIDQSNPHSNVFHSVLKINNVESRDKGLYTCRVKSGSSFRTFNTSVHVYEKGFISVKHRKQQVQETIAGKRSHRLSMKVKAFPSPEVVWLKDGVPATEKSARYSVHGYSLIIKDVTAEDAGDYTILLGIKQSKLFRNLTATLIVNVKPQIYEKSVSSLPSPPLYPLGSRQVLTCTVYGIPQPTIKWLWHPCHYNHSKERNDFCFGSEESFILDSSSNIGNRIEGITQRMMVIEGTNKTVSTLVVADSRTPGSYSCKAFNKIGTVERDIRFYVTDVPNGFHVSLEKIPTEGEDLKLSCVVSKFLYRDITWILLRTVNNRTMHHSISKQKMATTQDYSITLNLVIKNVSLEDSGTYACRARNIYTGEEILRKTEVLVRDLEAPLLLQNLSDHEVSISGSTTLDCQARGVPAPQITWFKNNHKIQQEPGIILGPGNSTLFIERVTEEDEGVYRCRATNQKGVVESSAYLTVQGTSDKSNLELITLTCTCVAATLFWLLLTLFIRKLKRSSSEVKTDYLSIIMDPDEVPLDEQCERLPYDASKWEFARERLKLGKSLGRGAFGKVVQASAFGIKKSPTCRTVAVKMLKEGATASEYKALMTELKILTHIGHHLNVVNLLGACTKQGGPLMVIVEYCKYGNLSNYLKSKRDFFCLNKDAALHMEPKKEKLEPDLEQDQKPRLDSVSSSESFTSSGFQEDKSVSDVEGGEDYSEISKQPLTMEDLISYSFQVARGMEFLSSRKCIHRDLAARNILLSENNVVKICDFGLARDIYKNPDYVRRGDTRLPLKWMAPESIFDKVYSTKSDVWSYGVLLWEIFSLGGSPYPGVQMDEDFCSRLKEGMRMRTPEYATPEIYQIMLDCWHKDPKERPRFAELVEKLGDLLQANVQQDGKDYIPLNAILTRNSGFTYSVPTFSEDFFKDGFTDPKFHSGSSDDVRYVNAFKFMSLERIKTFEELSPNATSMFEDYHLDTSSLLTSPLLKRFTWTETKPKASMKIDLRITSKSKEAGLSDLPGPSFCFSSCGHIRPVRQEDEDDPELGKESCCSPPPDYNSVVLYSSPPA

VEGFR2 = target: T2, VEGFR2 (Rattus norvegicus, UniProt O08775); experiment: as above
T2 chain: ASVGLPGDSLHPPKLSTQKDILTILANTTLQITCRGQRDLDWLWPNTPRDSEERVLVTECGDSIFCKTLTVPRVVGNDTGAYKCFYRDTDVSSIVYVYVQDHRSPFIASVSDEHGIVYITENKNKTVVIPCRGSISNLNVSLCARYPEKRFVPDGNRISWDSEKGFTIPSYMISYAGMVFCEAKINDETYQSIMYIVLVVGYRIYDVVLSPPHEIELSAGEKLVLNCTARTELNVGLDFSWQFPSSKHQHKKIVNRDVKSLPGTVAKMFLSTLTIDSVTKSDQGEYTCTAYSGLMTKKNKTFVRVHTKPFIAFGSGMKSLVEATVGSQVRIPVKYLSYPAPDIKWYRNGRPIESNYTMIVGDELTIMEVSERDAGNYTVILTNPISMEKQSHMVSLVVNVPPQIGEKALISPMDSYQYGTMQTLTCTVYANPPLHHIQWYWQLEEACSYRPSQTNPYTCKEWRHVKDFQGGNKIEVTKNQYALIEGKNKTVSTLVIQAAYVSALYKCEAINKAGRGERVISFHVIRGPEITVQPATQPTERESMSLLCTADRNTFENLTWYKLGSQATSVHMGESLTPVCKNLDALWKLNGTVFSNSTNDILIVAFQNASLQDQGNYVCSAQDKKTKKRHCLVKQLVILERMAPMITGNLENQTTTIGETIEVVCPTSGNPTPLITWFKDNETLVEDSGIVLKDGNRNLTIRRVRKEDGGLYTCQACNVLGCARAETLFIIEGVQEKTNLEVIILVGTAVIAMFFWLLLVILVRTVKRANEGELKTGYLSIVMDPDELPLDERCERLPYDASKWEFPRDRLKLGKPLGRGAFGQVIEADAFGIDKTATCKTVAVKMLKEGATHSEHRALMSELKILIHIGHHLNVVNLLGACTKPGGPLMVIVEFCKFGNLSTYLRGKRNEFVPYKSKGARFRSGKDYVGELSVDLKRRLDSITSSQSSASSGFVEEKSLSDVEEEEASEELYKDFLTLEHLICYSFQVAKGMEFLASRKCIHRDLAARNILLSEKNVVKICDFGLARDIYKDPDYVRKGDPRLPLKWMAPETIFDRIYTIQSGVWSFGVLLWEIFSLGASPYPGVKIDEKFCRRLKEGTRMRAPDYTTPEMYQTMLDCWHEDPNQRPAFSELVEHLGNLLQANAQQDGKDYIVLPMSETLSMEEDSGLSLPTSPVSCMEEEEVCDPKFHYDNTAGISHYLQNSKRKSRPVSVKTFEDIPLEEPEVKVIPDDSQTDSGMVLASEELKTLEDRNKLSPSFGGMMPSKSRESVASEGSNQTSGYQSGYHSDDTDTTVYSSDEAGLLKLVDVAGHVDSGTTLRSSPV

- Kd (VEGFR1): 0.008 nM
- Kd (VEGFR2): 0.21 nM
B1: VEGF-A165 (protein)
chain: MTDRQTDTAPSPSYHLLPGRRRTVDAAASRGQGPEPAPGGGVEGVGARGVALKLFVQLLGCSRFGGAVVRAGEAEPSGAARSASSGREEPQPEEGEEEEEKEEERGPQWRLGARKPGSWTGEAAVCADSAPAARAPQALARASGRGGRVARRGAEESGPPHSPSRRGSASRAGPGRASETMNFLLSWVHWSLALLLYLHHAKWSQAAPMAEGGGQNHHEVVKFMDVYQRSYCHPIETLVDIFQEYPDEIEYIFKPSCVPLMRCGGCCNDEGLECVPTEESNITMQIMRIKPHQGQHIGEMSFLQHNKCECRPKKDRARQEKKSVRGKGKGQKRKRKKSRYKSWSVPCGPCSERRKHLFVQDPQTCKCSCKNTDSRCKARQLELNERTCRCDKPRR
modifications: 125I-labeled VEGF-A
